Laboratory results from patent CN116355088A.

Columns and labels:
生物素标记的抗原多肽 (human) = 生物素标记的抗原多肽 (human) (UniProt P29400); test: BLI (Fortebio Octet), biotinylated peptide on SA biosensor, antibody at 100 to 1.56 nM
人IV型胶原蛋白α5链多肽 (human) = 人IV型胶原蛋白α5链多肽 (human) (UniProt P29400); test: indirect ELISA, plate coated with 0.5 μg/ml peptide, purified antibody in 3-fold dilutions from 1 μg/ml

Kd (生物素标记的抗原多肽 (human)): 3.18 nM
EC50 (人IV型胶原蛋白α5链多肽 (human)): 0.0221 µg/mL
B1: 18G6-2 (antibody, V domains shown)
VH: QVQLQQPGAELVKPGASVKVSCKASGYTFTNYWMHWVKQRPGQGLEWIGRIHPSDSAINYSPKFTGKATLTVDKSSSTAYMQLTSLTSEDSAVYYCAIGGYDSYWGQGTLVTVSA
VL: DIQMTQTTSSLSASLGDRVTISCRASQDISNYLNWYQQKPDGTVKLLIYYTSTLHSGVPSRFSGSGSGTDYSLTINSLAQEDIATYFCQQVNTLPWTFGGGTKLAIK
